B2: Mycobacterium smegmatis trehalose synthase (TreS) (enzyme, M. smegmatis, UniProt A0R6E0 1-593, looked up)
chain: MEEHTQGSHVEAGIVEHPNAEDFGHARTLPTDTNWFKHAVFYEVLVRAFYDSNADGIGDLRGLTEKLDYIKWLGVDCLWLPPFYDSPLRDGGYDIRDFYKVLPEFGTVDDFVTLLDAAHRRGIRIITDLVMNHTSDQHEWFQESRHNPDGPYGDFYVWSDTSDRYPDARIIFVDTEESNWTFDPVRRQFYWHRFFSHQPDLNYDNPAVQEAMLDVLRFWLDLGIDGFRLDAVPYLFEREGTNCENLPETHAFLKRCRKAIDDEYPGRVLLAEANQWPADVVAYFGDPDTGGDECHMAFHFPLMPRIFMAVRRESRFPISEILAQTPPIPDTAQWGIFLRNHDELTLEMVTDEERDYMYAEYAKDPRMKANVGIRRRLAPLLENDRNQIELFTALLLSLPGSPVLYYGDEIGMGDIIWLGDRDSVRTPMQWTPDRNAGFSKATPGRLYLPPNQDAVYGYHSVNVEAQLDSSSSLLNWTRNMLAVRSRHDAFAVGTFRELGGSNPSVLAYIREVTRQQGDGGAKTDAVLCVNNLSRFPQPIELNLQQWAGYIPVEMTGYVEFPSIGQLPYLLTLPGHGFYWFQLREPDPEPGAQQ
notes: Trehalose synthase TreS of M. smegmatis, locus MSMEG_6515, cloned from genomic DNA into NdeI/HindIII of pET28a; the printed primers run from the start codon to the stop codon; calculated tetramer mass 272,000 Da; also called Msm TreS; MSMEG_6515; source: E. coli BL21 (DE3), purified (Ni-NTA, HiTrap Q, Sephacryl S-300HR)

Experiments:
[1] = target: B2; assay: AUC; sedimentation equilibrium, 50 mM sodium phosphate pH 6.5, 300 mM NaCl, 10% glycerol, 4 °C; 8000, 9000, 10,000 rpm; TreS alone at 6, 4, 2 μM, 1:1 mixture at 3.75, 2.5, 1.25 μM; single-species model; conditions: both partners purified
[2] = target: B2; assay: crystal structure; vapor diffusion of mixtures of M. smegmatis TreS and Pep2 at molar ratios 1:1 to 1:2; 9-10% PEG 8000, 4% glycerol, 200 mM MgCl2, 0.1 M Tris-HCl pH 6.7-7.0; 3.6 Å; conditions: both partners purified
[3] = target: B2; assay: ITC; Pep2 (500 μM in the syringe) titrated into TreS (75 μM monomer); 50 mM sodium phosphate pH 6.5, 300 mM NaCl, 10% glycerol, 25 °C; conditions: both partners purified
[4] = target: B2; assay: ITC; Pep2 (500 μM in the syringe) titrated into TreS (75 μM monomer); 50 mM sodium phosphate pH 8.5, 300 mM NaCl, 10% glycerol, 25 °C; conditions: both partners purified
[5] = target: B2; assay: ITC; Pep2 (500 μM in the syringe) titrated into TreS (75 μM monomer); 50 mM sodium phosphate pH 7.5, 300 mM NaCl, 10% glycerol, 25 °C; conditions: both partners purified
[6] = target: the molecule itself; assay: AUC; sedimentation equilibrium, 50 mM sodium phosphate pH 6.5, 300 mM NaCl, 10% glycerol, 4 °C; 8000, 9000, 10,000 rpm; TreS alone at 6, 4, 2 μM, 1:1 mixture at 3.75, 2.5, 1.25 μM; single-species model
[7] = target: B2; assay: ITC; Pep2 (500 μM in the syringe) titrated into TreS (75 μM monomer); 50 mM sodium phosphate pH 6.5, 300 mM NaCl, 10% glycerol, 25 °C; conditions: both partners purified; remark: listed apart in the source
SEC = target: the molecule itself; assay: SEC
[8] = target: T1, Mycobacterium tuberculosis maltokinase (Pep2) (M. tuberculosis, UniProt O07177); assay: SEC; conditions: both partners purified
T1 construct: also called Mtb Pep2; MtPep2

[9] = target: T2, Mycobacterium smegmatis trehalose synthase (TreS) (M. smegmatis, UniProt A0R6E0 1-593); assay: ITC; Pep2 titrated to 75 uM TreS in the sample chamber, up to a molar ratio [Pep2]/[TreS] of about 1.5; pH 6.5; 200 mM NaCl; 298 K; conditions: both partners purified
T2 construct: Trehalose synthase TreS of M. smegmatis (MSMEG_6515), cloned from genomic DNA with primers from the start codon to the stop codon; concentrations in the ITC count on the monomer; also called Msm TreS; MsTreS; source: E. coli BL21 (DE3), purified (Ni-NTA, HiTrap Q, Sephacryl S-300HR)
T2 sequence (looked up): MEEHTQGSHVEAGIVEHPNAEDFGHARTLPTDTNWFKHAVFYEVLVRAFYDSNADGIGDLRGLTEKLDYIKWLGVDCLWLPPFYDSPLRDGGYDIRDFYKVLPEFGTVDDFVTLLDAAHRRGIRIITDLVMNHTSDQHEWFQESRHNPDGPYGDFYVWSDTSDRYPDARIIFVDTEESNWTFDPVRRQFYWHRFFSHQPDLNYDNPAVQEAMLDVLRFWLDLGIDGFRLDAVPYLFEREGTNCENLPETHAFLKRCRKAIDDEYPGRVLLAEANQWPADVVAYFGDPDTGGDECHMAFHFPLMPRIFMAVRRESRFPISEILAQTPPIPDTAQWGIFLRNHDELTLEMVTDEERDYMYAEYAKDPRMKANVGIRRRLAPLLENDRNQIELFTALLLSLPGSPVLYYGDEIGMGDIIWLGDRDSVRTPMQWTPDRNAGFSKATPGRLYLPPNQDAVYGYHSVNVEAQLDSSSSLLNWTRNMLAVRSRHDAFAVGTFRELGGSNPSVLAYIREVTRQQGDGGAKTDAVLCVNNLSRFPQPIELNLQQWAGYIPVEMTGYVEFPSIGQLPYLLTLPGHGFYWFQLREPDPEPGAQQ

[10] = target: T2, Mycobacterium smegmatis trehalose …; assay: ITC; Pep2 titrated to 75 uM TreS in the sample chamber, up to a molar ratio [Pep2]/[TreS] of about 1.5; pH 6.5; 300 mM NaCl; 298 K; conditions: both partners purified
[11] = target: T2, Mycobacterium smegmatis trehalose …; assay: ITC; Pep2 titrated to 75 uM TreS in the sample chamber, up to a molar ratio [Pep2]/[TreS] of about 1.5; pH 6.5; 400 mM NaCl; 298 K; conditions: both partners purified

B1: Mycobacterium smegmatis maltokinase (Pep2) (enzyme)
chain: not shown
notes: Maltokinase Pep2 of M. smegmatis, locus MSMEG_6514, 441 residues, cloned from genomic DNA into NdeI/HindIII of pET28a; the printed primers run from the start codon to the stop codon; Monomer by size exclusion; calculated mass 48,800 Da; also called Msm Pep2; MsPep2; source: E. coli BL21 (DE3), purified (Ni-NTA, HiTrap Q, Sephacryl S-300HR)
B1 was tested, and the “stoichiometry N” value [1] was 2 copies of Pep2 per TreS tetramer, the “stoichiometry N” value [2] was 1 Pep2 per TreS protomer and the Ka [3] was 287000 M⁻¹. For the same binder, the Kd [3] was 3.48 µM, the dH [3] was -31.3 kcal/mol and the “stoichiometry N” value [3] was 0.574 ± 0.007. It also gave a Ka [4] of 28700 M⁻¹, a Kd [4] of 34.8 µM and a dH [4] of -22.3 kcal/mol. The “stoichiometry N” value [4] was 0.22 ± 0.04, the Ka [5] was 160000 M⁻¹ and the Kd [5] was 6.25 µM. The dH [5] was -18.7 kcal/mol and the “stoichiometry N” value [5] was 0.459 ± 0.008.

With B2 the “stoichiometry N” value [6] was 4.

B3: N-terminally truncated M. smegmatis Pep2 (Pep2-Δ70) (domain or fragment)
chain: not shown
notes: Maltokinase Pep2 of M. smegmatis (MSMEG_6514) with a 70-amino acid N-terminal truncation; the whole protein has 441 residues; The first residue 71 follows from the stated 70-residue truncation; also called Msm Pep2-Δ70; source: E. coli BL21 (DE3), purified (as WT Pep2, NaCl 300 mM before ion exchange)
For B3, the Kd [7] was 28.6 µM, the Ka [3] was 35000 M⁻¹ and the Kd [3] was 26.8 µM. For the same binder, the dH [3] was -17.9 kcal/mol and the “stoichiometry N” value [3] was 0.681 ± 0.004.

B4: Mycobacterium tuberculosis trehalose synthase (TreS), wild type (enzyme)
chain: MNEAEHSVEHPPVQGSHVEGGVVEHPDAKDFGSAAALPADPTWFKHAVFYEVLVRAFFDASADGSGDLRGLIDRLDYLQWLGIDCIWLPPFYDSPLRDGGYDIRDFYKVLPEFGTVDDFVALVDAAHRRGIRIITDLVMNHTSESHPWFQESRRDPDGPYGDYYVWSDTSERYTDARIIFVDTEESNWSFDPVRRQFYWHRFFSHQPDLNYDNPAVQEAMIDVIRFWLGLGIDGFRLDAVPYLFEREGTNCENLPETHAFLKRVRKVVDDEFPGRVLLAEANQWPGDVVEYFGDPNTGGDECHMAFHFPLMPRIFMAVRRESRFPISEIIAQTPPIPDMAQWGIFLRNHDELTLEMVTDEERDYMYAEYAKDPRMKANVGIRRRLAPLLDNDRNQIELFTALLLSLPGSPVLYYGDEIGMGDVIWLGDRDGVRIPMQWTPDRNAGFSTANPGRLYLPPSQDPVYGYQAVNVEAQRDTSTSLLNFTRTMLAVRRRHPAFAVGAFQELGGSNPSVLAYVRQVAGDDGDTVLCVNNLSRFPQPIELDLQQWTNYTPVELTGHVEFPRIGQVPYLLTLPGHGFYWFQLTTHEVGAPPTCGGERRL
notes: also called Mtb TreS; WT Mtb TreS
For B4, the “stoichiometry N” value (SEC) was 4 and the binding result [8] was “binds”.

B5: Mycobacterium smegmatis maltokinase (Pep2) (enzyme)
chain: not shown
notes: Maltokinase Pep2 of M. smegmatis (MSMEG_6514); 441 residues; cloned with primers from the start codon to the stop codon; also called Msm Pep2; MsPep2; source: E. coli BL21 (DE3), purified (Ni-NTA, HiTrap Q, Sephacryl S-300HR)
With B5 the Ka [9] was 210000 M⁻¹, the Kd [9] was 4.8 µM and the “stoichiometry N” value [9] was 0.79 ± 0.015. For the same binder, the Ka [10] was 222000 M⁻¹, the Kd [10] was 4.5 µM and the “stoichiometry N” value [10] was 0.54 ± 0.01. For the same binder, the Ka [11] was 210000 M⁻¹, the Kd [11] was 4.8 µM and the “stoichiometry N” value [11] was 0.58 ± 0.01.

Source: article PMC6509496, “Crystal structure of the TreS:Pep2 complex, initiating α-glucan synthesis in the GlgE pathway of mycobacteria” (The Journal of Biological Chemistry, 2019)
